Experimental data from US20030203406.

T1: GGG tripeptide
T1 chain: GGG

T2: IGG tripeptide
T2 chain: IGG

T3: MAS tripeptide (Met-Ala-Ser)
T3 chain: MAS

T4: MEG tripeptide
T4 chain: MEG

T5: MGG tripeptide
T5 chain: MGG


Key:
[1] = biological target: T1, GGG tripeptide
[2] = biological target: T2, IGG tripeptide
[3] = biological target: T3, MAS tripeptide (Met-Ala-Ser)
[4] = biological target: T4, MEG tripeptide
[5] = biological target: T5, MGG tripeptide

Row | Protein | Cleaved [1] | Vmax (Abs × 1000/min) (Abs × 1000/min) [1] | Cleaved [2] | Vmax (Abs × 1000/min) (Abs × 1000/min) [2] | Cleaved [3] | Km [3] [µM] | Vmax (Abs × 1000/min) (Abs × 1000/min) [3] | kcat [3] [s⁻¹] | Cleaved [4] | Vmax (Abs × 1000/min) (Abs × 1000/min) [4] | Cleaved [5] | Vmax (Abs × 1000/min) (Abs × 1000/min) [5]
1 | recombinant human MetAP-3 purified from E. coli after thrombin cleavage of the NusA-6xHis tag (protein) SSPLNHIYLHKQSSSQQRRNFFFRRQRDISHSIVLPAAVSSAHPVPKHIKKPDYVTTGIVPDWGDSIEVKNEDQIQGLHQACQLARHVLLLAGKSLKVDMTTEEIDALVHREIISHNAYPSPLGYGGFPKSVCTSVNNVLCHGIPDSRPLQDGDIINIDVTVYYNGYHGDTSETFLVGNVDECGKKLVEVARRCRDEAIAACRAGAPFSVIGNTISHITHQNGFQVCPHFVGHGIGSYFHGHPEIWHHANDSDLPMEEGMAFTIEPIITEGSPEFKVLEDAWTVVSLDNQRSAQFEHTVLITSRGAQILTKLPHEA | No | 0.7 | No | 3.1 | Yes | 600 | 70 | 0.06 | No | 1.1 | Yes | 134
2 | recombinant human MetAP-2 expressed in Sf9 insect cells (protein) AGVEEVAASGSHLNGDLDPDDREEGAASTAEEAAKKKRRKKKKSKGPSAAGEQEPDKESGASVDEVARQLERSALEDKERDEDDEDGDGDGDGATGKKKKKKKKKRGPKVQTDPPSVPICDLYPNGVFPKGQECEYPPTQDGRTAAWRTTSEEKKALDQASEEIWNDFREAAEAHRQVRKYVMSWIKPGMTMIEICEKLEDCSRKLIKENGLNAGLAFPTGCSLNNCAAHYTPNAGDTTVLQYDDICKIDFGTHISGRIIDCAFTVTFNPKYDTLLKAVKDATNTGIKCAGIDVRLCDVGEAIQEVMESYEVEIDGKTYQVKPIRNLNGHSIGQYRIHAGKTVPIVKGGEATRMEEGEVYAIETFGSTGKGVVHDDMECSHYMKNFDVGHVPIRLPRTKHLLNVINENFGTLAFCRRWLDRLGESKYLMALKNLCDLGIVDPYPPLCDIKGSYTAQFEHTILLRPTCKEVVSRGDDY | – | – | – | – | – | 300 | – | 2.3 | – | – | – | –
